# Test results published in the supplement of paper PMC5998384.
# Key:
# HeLa Kyoto [1] = assay: melting temperature (median over replicates), in situ; higher = more thermally stable
# HeLa Kyoto [2] = assay: solubility in G1/S (NP-40 vs SDS abundance) (log2 ratio); higher = more soluble; conditions: cell cycle stage: G1/S
# HeLa Kyoto [3] = assay: solubility change mitosis vs G1/S (difference of NP-40 vs SDS log2 ratios) (log2 ratio difference); higher = more soluble in mitosis
# HeLa Kyoto [4] = assay: thermal stability score vs G1/S (z-score of summed log2 fold changes over temperatures); higher = more thermally stable than in G1/S
# [5] = cell cycle stage: early G1 (4.5 h after nocodazole release)
# 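Throughout, for melting temperature (median over replicates), in situ: HeLa Kyoto cells synchronized by double thymidine or nocodazole block, proteins quantified by TMT10plex mass spectrometry, three independent biological replicates.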
# 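Throughout, for solubility change mitosis vs G1/S (difference of NP-40 vs SDS log2 ratios): synchronized HeLa Kyoto cells (double thymidine block for G1/S, nocodazole release for mitosis), protein amounts in NP-40 versus SDS lysates quantified by mass spectrometry, three biological replicates.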
# 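Throughout, for solubility in G1/S (NP-40 vs SDS abundance): HeLa Kyoto cells arrested at G1/S by double thymidine block, proteins quantified by TMT10plex mass spectrometry in mild NP-40 versus SDS extracts, three biological replicates.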
# 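Throughout, for thermal stability score vs G1/S (z-score of summed log2 fold changes over temperatures): synchronized HeLa Kyoto cells, proteins quantified by TMT10plex mass spectrometry, three biological replicates, mitosis taken 0.5 h after nocodazole release, G1/S directly after double thymidine block.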
Sequence,melting temperature (HeLa Kyoto [1]; cell cycle stage: G1/S),melting temperature (HeLa Kyoto [1]; cell cycle stage: mitosis),solubility in G1/S (log2) (HeLa Kyoto [2]),solubility change mitosis (log2) (HeLa Kyoto [3]),thermal stability score (HeLa Kyoto [4]; [5]),thermal stability score (HeLa Kyoto [4]; cell cycle stage: mitosis)
MASGSGDSVTRRSVASQFFTQEEGPGIDGMTTSERVVDLLNQAALITNDSKITVLKQVQELIINKDPTLLDNFLDEIIAFQADKSIEVRKFVIGFIEEACKRDIELLLKLIANLNMLLRDENVNVVKKAILTMTQLYKVALQWMVKSRVISELQEACWDMVSAMAGDIILLLDSDNDGIRTHAIKFVEGLIVTLSPRMADSEIPRRQEHDISLDRIPRDHPYIQYNVLWEEGKAALEQLLKFMVHPAISSINLTTALGSLANIARQRPMFMSEVIQAYETLHANLPPTLAKSQVSSVRKNLKLHLLSVLKHPASLEFQAQITTLLVDLGTPQAEIARNMPSSKDTRKRPRDDSDSTLKKMKLEPNLGEDDEDKDLEPGPSGTSKASAQISGQSDTDITAEFLQPLLTPDNVANLVLISMVYLPEAMPASFQAIYTPVESAGTEAQIKHLARLMATQMTAAGLGPGVEQTKQCKEEPKEEKVVKTESVLIKRRLSAQGQAISVVGSLSSMSPLEEEAPQAKRRPEPIIPVTQPRLAGAGGRKKIFRLSDVLKPLTDAQVEAMKLGAVKRILRAEKAVACSGAAQVRIKILASLVTQFNSGLKAEVLSFILEDVRARLDLAFAWLYQEYNAYLAAGASGSLDKYEDCLIRLLSGLQEKPDQKDGIFTKVVLEAPLITESALEVVRKYCEDESRTYLGMSTLRDLIFKRPSRQFQYLHVLLDLSSHEKDKVRSQALLFIKRMYEKEQLREYVEKFALNYLQLLVHPNPPSVLFGADKDTEVAAPWTEETVKQCLYLYLALLPQNHKLIHELAAVYTEAIADIKRTVLRVIEQPIRGMGMNSPELLLLVENCPKGAETLVTRCLHSLTDKVPPSPELVKRVRDLYHKRLPDVRFLIPVLNGLEKKEVIQALPKLIKLNPIVVKEVFNRLLGTQHGEGNSALSPLNPGELLIALHNIDSVKCDMKSIIKATNLCFAERNVYTSEVLAVVMQQLMEQSPLPMLLMRTVIQSLTMYPRLGGFVMNILSRLIMKQVWKYPKVWEGFIKCCQRTKPQSFQVILQLPPQQLGAVFDKCPELREPLLAHVRSFTPHQQAHIPNSIMTILEASGKQEPEAKEAPAGPLEEDDLEPLTLAPAPAPRPPQDLIGLRLAQEKALKRQLEEEQKLKPGGVGAPSSSSPSPSPSARPGPPPSEEAMDFREEGPECETPGIFISMDDDSGLTEAALLDSSLEGPLPKETAAGGLTLKEERSPQTLAPVGEDAMKTPSPAAEDAREPEAKGNS [SYMPK],48.1 °C,49.1 °C,0.0291,-0.0648,1.75,4.2
MSRARSHLRAALFLAAASARGITTQVAARRGLSAWPVPQEPSMEYQDAVRMLNTLQTNAGYLEQVKRQRGDPQTQLEAMELYLARSGLQVEDLDRLNIIHVTGTKGKGSTCAFTECILRSYGLKTGFFSSPHLVQVRERIRINGQPISPELFTKYFWRLYHRLEETKDGSCVSMPPYFRFLTLMAFHVFLQEKVDLAVVEVGIGGAYDCTNIIRKPVVCGVSSLGIDHTSLLGDTVEKIAWQKGGIFKQGVPAFTVLQPEGPLAVLRDRAQQISCPLYLCPMLEALEEGGPPLTLGLEGEHQRSNAALALQLAHCWLQRQDRHGAGEPKASRPGLLWQLPLAPVFQPTSHMRLGLRNTEWPGRTQVLRRGPLTWYLDGAHTASSAQACVRWFRQALQGRERPSGGPEVRVLLFNATGDRDPAALLKLLQPCQFDYAVFCPNLTEVSSTGNADQQNFTVTLDQVLLRCLEHQQHWNHLDEEQASPDLWSAPSPEPGGSASLLLAPHPPHTCSASSLVFSCISHALQWISQGRDPIFQPPSPPKGLLTHPVAHSGASILREAAAIHVLVTGSLHLVGGVLKLLEPALSQ [FPGS],49.7 °C,48.1 °C,0.114,-0.165,0.537,1.93
MIKKFDKKDEESGSGSNPFQHLEKSAVLQEARIFNETPINPRRCLHILTKILYLLNQGEHFGTTEATEAFFAMTRLFQSNDQTLRRMCYLTIKEMATISEDVIIVTSSLTKDMTGKEDVYRGPAIRALCRITDGTMLQAIERYMKQAIVDKVSSVSSSALVSSLHMMKISYDVVKRWINEAQEAASSDNIMVQYHALGVLYHLRKNDRLAVSKMLNKFTKSGLKSQFAYCMLIRIASRLLKETEDGHESPLFDFIESCLRNKHEMVIYEAASAIIHLPNCTARELAPAVSVLQLFCSSPKPALRYAAVRTLNKVAMKHPSAVTACNLDLENLITDSNRSIATLAITTLLKTGSESSVDRLMKQISSFVSEISDEFKVVVVQAISALCQKYPRKHSVMMTFLSNMLRDDGGFEYKRAIVDCIISIVEENPESKEAGLAHLCEFIEDCEHTVLATKILHLLGKEGPRTPVPSKYIRFIFNRVVLENEAVRAAAVSALAKFGAQNESLLPSILVLLQRCMMDTDDEVRDRATFYLNVLQQRQMALNATYIFNGLTVSVPGMEKALHQYTLEPSEKPFDMKSIPLAMAPVFEQKAEITLVATKPEKLAPSRQDIFQEQLAAIPEFLNIGPLFKSSEPVQLTEAETEYFVRCIKHMFTNHIVFQFDCTNTLNDQLLEKVTVQMEPSDSYEVLSCIPAPSLPYNQPGICYTLVRLPDDDPTAVAGSFSCTMKFTVRDCDPNTGVPDEDGYDDEYVLEDLEVTVSDHIQKVLKPNFAAAWEEVGDTFEKEETFALSSTKTLEEAVNNIITFLGMQPCERSDKVPENKNSHSLYLAGIFRGGYDLLVRSRLALADGVTMQVTVRSKERTPVDVILASVG [COPG2],52 °C,51.8 °C,-0.192,-0.304,0.652,0.0351
MAQHFSLAACDVVGFDLDHTLCRYNLPESAPLIYNSFAQFLVKEKGYDKELLNVTPEDWDFCCKGLALDLEDGNFLKLANNGTVLRASHGTKMMTPEVLAEAYGKKEWKHFLSDTGMACRSGKYYFYDNYFDLPGALLCARVVDYLTKLNNGQKTFDFWKDIVAAIQHNYKMSAFKENCGIYFPEIKRDPGRYLHSCPESVKKWLRQLKNAGKILLLITSSHSDYCRLLCEYILGNDFTDLFDIVITNALKPGFFSHLPSQRPFRTLENDEEQEALPSLDKPGWYSQGNAVHLYELLKKMTGKPEPKVVYFGDSMHSDIFPARHYSNWETVLILEELRGDEGTRSQRPEESEPLEKKGKYEGPKAKPLNTSSKKWGSFFIDSVLGLENTEDSLVYTWSCKRISTYSTIAIPSIEAIAELPLDYKFTRFSSSNSKTAGYYPNPPLVLSSDETLISK [NT5DC1],55.5 °C,55.7 °C,0.0982,-0.212,0.00809,-0.565
MAKTYDYLFKLLLIGDSGVGKTCVLFRFSEDAFNSTFISTIGIDFKIRTIELDGKRIKLQIWDTAGQERFRTITTAYYRGAMGIMLVYDITNEKSFDNIRNWIRNIEEHASADVEKMILGNKCDVNDKRQVSKERGEKLALDYGIKFMETSAKANINVENAFFTLARDIKAKMDKKLEGNSPQGSNQGVKITPDQQKRSSFFRCVLL [RAB8A],56.7 °C,55.4 °C,-0.0996,-0.103,2.59,1.39
MSPAPDAAPAPASISLFDLSADAPVFQGLSLVSHAPGEALARAPRTSCSGSGERESPERKLLQGPMDISEKLFCSTCDQTFQNHQEQREHYKLDWHRFNLKQRLKDKPLLSALDFEKQSSTGDLSSISGSEDSDSASEEDLQTLDRERATFEKLSRPPGFYPHRVLFQNAQGQFLYAYRCVLGPHQDPPEEAELLLQNLQSRGPRDCVVLMAAAGHFAGAIFQGREVVTHKTFHRYTVRAKRGTAQGLRDARGGPSHSAGANLRRYNEATLYKDVRDLLAGPSWAKALEEAGTILLRAPRSGRSLFFGGKGAPLQRGDPRLWDIPLATRRPTFQELQRVLHKLTTLHVYEEDPREAVRLHSPQTHWKTVREERKKPTEEEIRKICRDEKEALGQNEESPKQGSGSEGEDGFQVELELVELTVGTLDLCESEVLPKRRRRKRNKKEKSRDQEAGAHRTLLQQTQEEEPSTQSSQAVAAPLGPLLDEAKAPGQPELWNALLAACRAGDVGVLKLQLAPSPADPRVLSLLSAPLGSGGFTLLHAAAAAGRGSVVRLLLEAGADPTVQDSRARPPYTVAADKSTRNEFRRFMEKNPDAYDYNKAQVPGPLTPEMEARQATRKREQKAARRQREEQQQRQQEQEEREREEQRRFAALSDREKRALAAERRLAAQLGAPTSPIPDSAIVNTRRCWSCGASLQGLTPFHYLDFSFCSTRCLQDHRRQAGRPSS [ANKZF1],49.7 °C,50.1 °C,0.0804,-0.104,0.638,1.02
MEFVKCLGHPEEFYNLVRFRIGGKRKVMPKMDQDSLSSSLKTCYKYLNQTSRSFAAVIQALDGEMRNAVCIFYLVLRALDTLEDDMTISVEKKVPLLHNFHSFLYQPDWRFMESKEKDRQVLEDFPTISLEFRNLAEKYQTVIADICRRMGIGMAEFLDKHVTSEQEWDKYCHYVAGLVGIGLSRLFSASEFEDPLVGEDTERANSMGLFLQKTNIIRDYLEDQQGGREFWPQEVWSRYVKKLGDFAKPENIDLAVQCLNELITNALHHIPDVITYLSRLRNQSVFNFCAIPQVMAIATLAACYNNQQVFKGAVKIRKGQAVTLMMDATNMPAVKAIIYQYMEEIYHRIPDSDPSSSKTRQIISTIRTQNLPNCQLISRSHYSPIYLSFVMLLAALSWQYLTTLSQVTEDYVQTGEH [FDFT1],52.2 °C,51.4 °C,-0.184,-0.0823,1.39,0.889
MLQQVPENINFPAEEEKILEFWTEFNCFQECLKQSKHKPKFTFYDGPPFATGLPHYGHILAGTIKDIVTRYAHQSGFHVDRRFGWDCHGLPVEYEIDKTLGIRGPEDVAKMGITEYNNQCRAIVMRYSAEWKSTVSRLGRWIDFDNDYKTLYPQFMESVWWVFKQLYDKGLVYRGVKVMPFSTACNTPLSNFESHQNYKDVQDPSVFVTFPLEEDETVSLVAWTTTPWTLPSNLAVCVNPEMQYVKIKDVARGRLLILMEARLSALYKLESDYEILERFPGAYLKGKKYRPLFDYFLKCKENGAFTVLVDNYVKEEEGTGVVHQAPYFGAEDYRVCMDFNIIRKDSLPVCPVDASGCFTTEVTDFAGQYVKDADKSIIRTLKEQGRLLVATTFTHSYPFCWRSDTPLIYKAVPSWFVRVENMVDQLLRNNDLCYWVPELVREKRFGNWLKDARDWTISRNRYWGTPIPLWVSDDFEEVVCIGSVAELEELSGAKISDLHRESVDHLTIPSRCGKGSLHRISEVFDCWFESGSMPYAQVHYPFENKREFEDAFPADFIAEGIDQTRGWFYTLLVLATALFGQPPFKNVIVNGLVLASDGQKMSKRKKNYPDPVSIIQKYGADALRLYLINSPVVRAENLRFKEEGVRDVLKDVLLPWYNAYRFLIQNVLRLQKEEEIEFLYNENTVRESPNITDRWILSFMQSLIGFFETEMAAYRLYTVVPRLVKFVDILTNWYVRMNRRRLKGENGMEDCVMALETLFSVLLSLCRLMAPYTPFLTELMYQNLKVLIDPVSVQDKDTLSIHYLMLPRVREELIDKKTESAVSQMQSVIELGRVIRDRKTIPIKYPLKEIVVIHQDPEALKDIKSLEKYIIEELNVRKVTLSTDKNKYGIRLRAEPDHMVLGKRLKGAFKAVMTSIKQLSSEELEQFQKTGTIVVEGHELHDEDIRLMYTFDQATGGTAQFEAHSDAQALVLLDVTPDQSMVDEGMAREVINRIQKLRKKCNLVPTDEITVYYKAKSEGTYLNSVIESHTEFIFTTIKAPLKPYPVSPSDKVLIQEKTQLKGSELEITLTRGSSLPGPACAYVNLNICANGSEQGGVLLLENPKGDNRLDLLKLKSVVTSIFGVKNTELAVFHDETEIQNQTDLLSLSGKTLCVTAGSAPSLINSSSTLLCQYINLQLLNAKPQECLMGTVGTLLLENPLGQNGLTHQGLLYEAAKVFGLRSRKLKLFLNETQTQEITEDIPVKTLNMKTVYVSVLPTTADF [IARS],48.8 °C,49.2 °C,-0.225,-0.178,0.0148,2.81
